Changes are numbered by the printed parent chain. Names may count otherwise.
Legend:
[1] = biological target: Thermus thermophilus xylose isomerase mutants (1010, 1021, 1024, 1026); experiment: Inhibition constant for xylitol, mutants compared to wildtype; type: biochemical; settings: the mutants compared to the wildtype enzyme, xylose 20-400 mM
Procedure: (§1) The cells were harvested by centrifugation in the stationary phase of growth and washed once with ice cold distilled water. Washed cells were resusprended in 100 mM triethanolamine, pH 7.0, 0.5 mg/ml lysozyme (130000 U/mg), 0.25 mg/ml DNase, and 1 mM phenylmethylsulphonyl fluoride (PMSF) in dimethylsulfoxide (DMSO). The suspensions were kept at room temperature for one hour and then on ice for two hours before being put in a freezer at −20° C. The cell lysates were thawed on ice, cell debris was removed by centrifugation (1300 rpm for 15 minutes at 4° C.) and the supernatants were used as the crude enzyme preparations.
The reaction was terminated after 10 minutes by adding 150 μl 50% trichloroaceticacid. The reaction mixture was neutralized with 185 μl 2 M Na2CO3. The formed xylulose or fructose was measured on a COBAS MIRA (Roche) automated spectrophotometer via enzymatic reduction with 0.04 or 0.5 units of Sorbitol Dehydrogenase (purchased from Roche), respectively in the presence of 0.15 mM NADH at pH 7.0, 37° C. in 200 μl reaction volume. The rate of disappearance of NADH was followed at 340 nm and the concentration of D-xylulose or D-fructose was calculated using calibration curves. […] The specific activity (U min^−1 mg^−1) was determined from the activity and the protein concentration of the crude enzyme preparations. […]

[2] = biological target: Thermus thermophilus xylose isomerase (xylA), mutant 1010 (M1010) (Thermus thermophilus, UniProt P26997); type: biochemical
Procedure: as §1
(§2) Protein concentration was determined with the Bradford method (Bradford (1976)) using the Pierce protein reagent with bovine serum albumin as standard.
The reaction was terminated after 10 minutes by adding 150 μl 50% trichloroaceticacid. The reaction mixture was neutralized with 185 μl 2 M Na2CO3. The formed xylulose or fructose was measured on a COBAS MIRA (Roche) automated spectrophotometer via enzymatic reduction with 0.04 or 0.5 units of Sorbitol Dehydrogenase (purchased from Roche), respectively in the presence of 0.15 mM NADH at pH 7.0, 37° C. in 200 μl reaction volume. The rate of disappearance of NADH was followed at 340 nm and the concentration of D-xylulose or D-fructose was calculated using calibration curves. […] The specific activity (U min^−1 mg^−1) was determined from the activity and the protein concentration of the crude enzyme preparations.
(§3) The kinetic parameters Vmax (μmol min^−1 mg^−1) and Km (mM) were determined from Michaelis-Menten plots of specific activities at various substrate concentrations by nonlinear regression analysis with Sigma Plot (SSPS Inc.) software. Typically, duplicate measurements were used to determine the Km value at 6-10 concentrations of the substrate, with a concentration range covering the value of Km.

[3] = biological target: T1, Thermus thermophilus xylose isomerase, wild type (nucleic acid sequence SEQ ID NO: 2) (Thermus thermophilus, UniProt P26997); experiment: biochemical
T1 sequence (P26997 1-387): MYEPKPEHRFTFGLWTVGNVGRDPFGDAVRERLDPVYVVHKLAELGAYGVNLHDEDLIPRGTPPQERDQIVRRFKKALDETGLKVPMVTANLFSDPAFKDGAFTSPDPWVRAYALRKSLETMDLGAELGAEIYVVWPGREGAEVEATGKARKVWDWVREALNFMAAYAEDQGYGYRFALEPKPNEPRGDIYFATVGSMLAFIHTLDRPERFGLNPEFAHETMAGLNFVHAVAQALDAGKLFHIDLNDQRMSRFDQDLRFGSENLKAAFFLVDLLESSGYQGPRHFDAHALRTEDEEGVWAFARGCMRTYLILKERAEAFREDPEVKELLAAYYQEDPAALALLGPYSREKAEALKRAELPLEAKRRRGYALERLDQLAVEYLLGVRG

[4] = biological target: T2, Thermus thermophilus xylose isomerase (xylA), mutant 1021 (M1021) (Thermus thermophilus, UniProt P26997, E372G/V379A); experiment: Kinetic characterisation of mutant xylose isomerase 1021 (xylose/glucose isomerase activity, xylitol inhibition); type: biochemical
T2 construct: made in house; host or cells: E. coli HB101 (crude lysate)
T2 sequence (P26997 1-387 E372G/V379A): T1 sequence (P26997 1-387) with E372G, V379A
Procedure: as §1, §2
(§4) The reaction was terminated after 10 minutes by adding 150 μl 50% trichloroaceticacid. The reaction mixture was neutralized with 185 μl 2 M Na2CO3. The formed xylulose or fructose was measured on a COBAS MIRA (Roche) automated spectrophotometer via enzymatic reduction with 0.04 or 0.5 units of Sorbitol Dehydrogenase (purchased from Roche), respectively in the presence of 0.15 mM NADH at pH 7.0, 37° C. in 200 μl reaction volume. The rate of disappearance of NADH was followed at 340 nm and the concentration of D-xylulose or D-fructose was calculated using calibration curves. […]

[5] = biological target: T3, Thermus thermophilus xylose isomerase (xylA), mutant 1026 (M1026) (Thermus thermophilus, UniProt P26997, E372G); experiment: Kinetic characterisation of mutant xylose isomerase 1026 (xylose/glucose isomerase activity, xylitol inhibition); type: biochemical; settings: mutant 1026, crude enzyme, 10 mM MnCl2, pH 7.0
T3 construct: made in house; host or cells: E. coli HB101 (crude lysate)
T3 sequence (P26997 1-387 E372G): T1 sequence (P26997 1-387) with E372G
Procedure: as §1, §2, §4

[6] = biological target: T1, Thermus thermophilus xylose isomerase, wild type (nucleic acid sequence SEQ ID NO: 2); settings: crude enzyme, 10 mM MnCl2, pH 7.0
[7] = biological target: T4, Thermus thermophilus xylose isomerase (xylA), mutant 1024 (M1024) (Thermus thermophilus, UniProt P26997, E372G/F163L); experiment: Kinetic characterisation of mutant xylose isomerase 1024 (xylose/glucose isomerase activity, xylitol inhibition); type: biochemical; settings: mutant 1024, crude enzyme, 10 mM MnCl2, pH 7.0
T4 construct: made in house; host or cells: E. coli HB101 (crude lysate)
T4 sequence (P26997 1-387 F163L/E372G): T1 sequence (P26997 1-387) with F163L, E372G
Procedure: as §1, §2, §4

[8] = substrate: OC[C@H]1OC(O)[C@H](O)[C@@H](O)[C@@H]1O; experiment: cells, lysate or membranes named; type: biochemical, Thermus thermophilus; settings: other: mutant 1021, crude enzyme, 10 mM MnCl2, pH 7.0
Procedure: as §1, §2
(§5) The reaction was terminated after 10 minutes by adding 150 μl 50% trichloroaceticacid. The reaction mixture was neutralized with 185 μl 2 M Na2CO3. The formed xylulose or fructose was measured on a COBAS MIRA (Roche) automated spectrophotometer via enzymatic reduction with 0.04 or 0.5 units of Sorbitol Dehydrogenase (purchased from Roche), respectively in the presence of 0.15 mM NADH at pH 7.0, 37° C. in 200 μl reaction volume. The rate of disappearance of NADH was followed at 340 nm and the concentration of D-xylulose or D-fructose was calculated using calibration curves. […] The specific activity (U min^−1 mg^−1) was determined from the activity and the protein concentration of the crude enzyme preparations. […] The temperature optimum for the mutants were roughly the same as for the wild type enzyme except for mutant 1021, which had ˜10° C. lower temperature optimum.
as §3

[9] = substrate: OC1OC[C@@H](O)[C@H](O)[C@H]1O; experiment: cells, lysate or membranes named; type: biochemical, Thermus thermophilus; settings: 10 mM MnCl2, pH 7.0
Procedure: as §1, §2, §5, §3

[10] = substrate: OC1OC[C@@H](O)[C@H](O)[C@H]1O; experiment: cells, lysate or membranes named; settings: other: wild type, crude enzyme, 10 mM MnCl2, pH 7.0
[11] = Effect of pH on the activity of the enzymes; type: biochemical; settings: 60° C., 700 mM D-xylose, 10 mM MnCl2, pH range 5-10
Procedure: The effect of pH on the activity of the enzymes was followed in the pH range 5-10 in a buffer prepared by mixing acetate, piperazine-N,N'-bis-(2-ethanolsulphonic acid) (PIPES), […] (HEPES) and glycine at final concentration 50 mM each as described by (Dekker at al. (1992) Appl. Mirobiol. Biotechnol. 36: 727-732). The pH was adjusted at 60° C. with NaOH.

[12] = Effect of different bivalent cations on the activity of EDTA treated enzymes; type: biochemical; settings: EDTA treated enzyme, activity with 10 mM MnCl2 at 60° C. set to 100%
Procedure: Furthermore, the effect of different bivalent cations (10 mM) on the activity of EDTA treated enzymes was investigated. The specific activity with 10 mM MnCl2 at 60° C. was set to 100% for each enzyme.

[13] = Xylose isomerase activity assay of crude enzyme preparations from E. coli HB101; type: biochemical
Procedure: The cells were harvested by centrifugation in the stationary phase of growth and washed once with ice cold distilled water. […] The suspensions were kept at room temperature for one hour and then on ice for two hours before being put in a freezer at −20° C. The cell lysates were thawed on ice, cell debris was removed by centrifugation (1300 rpm for 15 minutes at 4° C.) and the supernatants were used as the crude enzyme preparations. Protein concentration was determined with the Bradford method (Bradford (1976)) using the Pierce protein reagent with bovine serum albumin as standard. […] The reaction mixture was neutralized with 185 μl 2 M Na2CO3. […] The rate of disappearance of NADH was followed at 340 nm and the concentration of D-xylulose or D-fructose was calculated using calibration curves. […] The specific activity (U min^−1 mg^−1) was determined from the activity and the protein concentration of the crude enzyme preparations.

[14] = cited from earlier work
[15] = mutant 1010, crude enzyme, 10 mM MnCl2, pH 7.0
[16] = other: mutant 1021, crude enzyme
[17] = other: mutant 1024, crude enzyme

OC[C@@H](O)[C@H](O)[C@@H](O)CO [xylitol]
Ki for xylitol [1]: higher Ki for xylitol | Ki ([2]; read-out: Ki xylitol, mutant 1010, xylose 20-400 mM, fixed xylitol concentrations): 10.1 mM | Ki [3]: 4.6 mM | Ki [4]: 33.2 mM

OC1OC[C@@H](O)[C@H](O)[C@H]1O (stereo partly drawn) [xylose, D-xylose]
Vmax xylose [2, 15]: 0.44 µmol/min/mg | Km ([2]; read-out: Km xylose, mutant 1010, crude enzyme, 10 mM MnCl2, pH 7.0): 16.6 ± 2.2 mM

OC[C@H]1OC(O)[C@H](O)[C@@H](O)[C@@H]1O (stereo partly drawn) [glucose]
Vmax glucose [5]: 0.18 µmol/min/mg | Vmax glucose [6]: 0.015 µmol/min/mg | Vmax glucose [2, 15]: 0.0034 µmol/min/mg | Vmax glucose [7]: 0.54 µmol/min/mg

B1: Thermus thermophilus xylose isomerase (xylA), mutant 1021 (M1021) (Thermus thermophilus HB8; E372G/V379A) (protein)
chain: T1 sequence (P26997 1-387) with E372G, V379A
notes: made in house; host or cells: E. coli HB101 (crude lysate)
Km [8]: 52.0 ± 4.9 mM | Vmax [8]: 0.13 µmol/min/mg | Km [9, 16]: 25.1 ± 4.0 mM | Vmax [9, 16]: 0.84 µmol/min/mg

B2: Thermus thermophilus xylose isomerase (xylA), mutant 1024 (M1024) (Thermus thermophilus HB8; E372G/F163L) (protein)
chain: T1 sequence (P26997 1-387) with F163L, E372G
notes: as for B1
Km [9, 17]: 89.4 ± 8.4 mM | Vmax [9, 17]: 3.08 µmol/min/mg

B3: Thermus thermophilus xylose isomerase, wild type (nucleic acid sequence SEQ ID NO: 2) (Thermus thermophilus HB8) (protein)
chain: T1 sequence (P26997 1-387)
Km [10]: 3.44 ± 0.4 mM | Vmax [10]: 0.043 µmol/min/mg | pH optimum [11]: 6-7.5 | Co^2+ (% relative activity) ([12]; 10 mM Co2+): 87.9% | Mg^2+ (% relative activity) ([12]; 10 mM Mg2+): 73.8% | Vmax at 30° C. ([13]; 30° C., 700 mM D-xylose, 10 mM MnCl2, pH 7.0, crude enzyme): 0.014 μmol/min^−1mg^−1 | Temp. optimum ([13]; xylose as substrate, pH 7.0): 85 °C | activity at 30° C. [14]: only trace activity
